In patent publication US20260242478A1 (published 2026):
Where no end group is shown, it is not given here.

Columns and labels:
[1] = biological target: T1, Anti-CD28 Fab (SEQ ID NOs: 696, 697); assay: phage ELISA; biotinylated anti-CD28 Fab on neutravidin plate, clonal phage supernatant, anti-M13 HRP detection;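 further: crude supernatants of single phage clones picked after panning were screened for binding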
T1 construct: In the phage ELISA the Fab was biotinylated and captured on neutravidin coated plates
T1 sequence (VH, as listed by the source, chain 1 of 2): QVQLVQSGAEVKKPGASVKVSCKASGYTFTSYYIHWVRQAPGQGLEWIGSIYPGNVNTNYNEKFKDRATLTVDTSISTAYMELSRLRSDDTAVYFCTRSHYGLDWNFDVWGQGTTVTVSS
T1 sequence (VL, as listed by the source, chain 2 of 2): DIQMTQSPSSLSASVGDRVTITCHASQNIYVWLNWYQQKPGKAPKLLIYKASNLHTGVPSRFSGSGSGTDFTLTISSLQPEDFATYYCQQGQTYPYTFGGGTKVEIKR

[2] = biological target: T1, Anti-CD28 Fab (SEQ ID NOs: 696, 697); assay: phage ELISA; Fab-coated wells pre-incubated with CD28 antigen as competitor, clonal phage supernatant, anti-M13 HRP detection
Protocol: (§1) After panning, phage infected bacteria were plated out and colonies picked into 96 well blocks. Clonal phage was then amplified and separated from bacterial cells via centrifugation.
(§2) Clonal phage were harvested as crude supematants and screened via standard ELISAs. […] Prior to the addition of clonal phage, wells were incubated with blocking buffer and CD28 antigen or blocking buffer alone. Without washing or aspirating, clonal phage supematants were then added to the wells and incubated for a short time. Wells were then washed followed by detection of bound phage using a horse radish conjugated anti-M13 antibody. Clonal phage of interest were then sent for sequence analysis.

[3] = biological target: Anti-CD28 Fab (SEQ ID NOs: 696, 697); assay: phage ELISA; biotinylated anti-CD28 Fab on neutravidin plate, clonal phage supernatant, anti-M13 HRP detection;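 further: crude supernatants of single phage clones picked after panning were screened for binding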
Target sequence in this assay (VH, as listed by the source, chain 1 of 2): as the sequence (VH, as listed by the source, chain 1 of 2) above
Target sequence in this assay (VL, as listed by the source, chain 2 of 2): as the sequence (VL, as listed by the source, chain 2 of 2) above

[4] = biological target: Anti-CD28 Fab (SEQ ID NOs: 696, 697); assay: phage ELISA as above; wells pre-incubated with CD28 antigen as competitor
Target sequence in this assay (VH, as listed by the source, chain 1 of 2): as the sequence (VH, as listed by the source, chain 1 of 2) above
Target sequence in this assay (VL, as listed by the source, chain 2 of 2): as the sequence (VL, as listed by the source, chain 2 of 2) above
Protocol: as §1, §2

[5] = biological target: Anti-CD28 Fab (SEQ ID NOs: 696, 697); assay: phage ELISA; Fab on plate pre-incubated with CD28 antigen (competitor), clonal phage supernatant, anti-M13 HRP detection
Target sequence in this assay (VH, as listed by the source, chain 1 of 2): as the sequence (VH, as listed by the source, chain 1 of 2) above
Target sequence in this assay (VL, as listed by the source, chain 2 of 2): as the sequence (VL, as listed by the source, chain 2 of 2) above
Protocol: as §1, §2

[6] = biological target: Anti-CD28 Fab (SEQ ID NOs: 696, 697); assay: phage ELISA; biotinylated anti-CD28 Fab on neutravidin plate, clonal phage supernatant, anti-M13 HRP detection; remark: listed apart in the source;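 further: crude supernatants of single phage clones picked after panning were screened for binding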
Target sequence in this assay (VH, as listed by the source, chain 1 of 2): as the sequence (VH, as listed by the source, chain 1 of 2) above
Target sequence in this assay (VL, as listed by the source, chain 2 of 2): as the sequence (VL, as listed by the source, chain 2 of 2) above

B1: Phage-1294 (peptide)
peptide: YCDGHMDAYMSKCL
In the case of B1, the “Phage binding ELISA, Anti-CD28 Fab signal” value [1] is reported as 0.65 and the “Phage binding ELISA, Anti-CD28 Fab signal in the presence of CD28” value [2] is reported as 0.06.

B2: Phage-1309 (peptide, not shown: large carriers)
peptide: YCDGHIMPYLDKCL
modifications: cysteine pairing not given here; also: fused to phage pIII protein, pIII and linker sequence not given here
notes: Tested as clonal phage supernatant
In the case of B2, the “Anti-CD28 Fab signal (phage binding ELISA)” value [3] is reported as 0.57 and the “Anti-CD28 Fab signal in the presence of CD28 (phage binding ELISA)” value [4] is reported as 0.05.

B3: Phage-1271 (peptide)
peptide: YCAGHTQEYMLKCL
notes: also called Peptide-87 library clone
In the case of B3, the “Phage binding ELISA, Anti-CD28 Fab signal in the presence of CD28” value [5] is reported as 0.06 and the “Phage binding ELISA, Anti-CD28 Fab signal” value [6] is reported as 0.78.

B4: Phage-1296 (peptide)
peptide: YCDGHAWWYMEKCL
B4 was tested, and the “Phage binding ELISA, Anti-CD28 Fab signal” value [1] was 0.64 and the “Phage binding ELISA, Anti-CD28 Fab signal in the presence of CD28” value [2] was 0.06.

B5: Phage-1289 (peptide)
peptide: YCVGHLPLYMPNCL
For B5, the “Phage binding ELISA, Anti-CD28 Fab signal” value [1] was 0.68 and the “Phage binding ELISA, Anti-CD28 Fab signal in the presence of CD28” value [2] was 0.11.

B6: Phage-1293 (peptide)
peptide: YCEGHAAVYMHKCL
For B6, the “Phage binding ELISA, Anti-CD28 Fab signal” value [1] was 0.67 and the “Phage binding ELISA, Anti-CD28 Fab signal in the presence of CD28” value [2] was 0.09.

B7: Phage-1307 (peptide, not shown: large carriers)
peptide: YCEGHLQEYMGKCL
modifications: cysteine pairing not given here; also: fused to phage pIII protein, pIII and linker sequence not given here
notes: as for B2
For B7, the “Anti-CD28 Fab signal (phage binding ELISA)” value [3] was 0.58 and the “Anti-CD28 Fab signal in the presence of CD28 (phage binding ELISA)” value [4] was 0.25.

B8: Phage-1268 (peptide)
peptide: YCDGHSMEYMAKCL
notes: as for B3
With B8 the “Phage binding ELISA, Anti-CD28 Fab signal in the presence of CD28” value [5] was 0.07 and the “Phage binding ELISA, Anti-CD28 Fab signal” value [6] was 0.8.

B9: Phage-1304 (peptide, not shown: large carriers)
peptide: YCEGHIGDYIAKCL
modifications: cysteine pairing not given here; also: fused to phage pIII protein, pIII and linker sequence not given here
notes: as for B2
In the case of B9, the “Anti-CD28 Fab signal (phage binding ELISA)” value [3] is reported as 0.61 and the “Anti-CD28 Fab signal in the presence of CD28 (phage binding ELISA)” value [4] is reported as 0.36.

B10: Phage-1263 (peptide)
peptide: YCDGHKWEYLQKCL
notes: as for B3
B10 was tested, and the “Phage binding ELISA, Anti-CD28 Fab signal in the presence of CD28” value [5] was 0.06 and the “Phage binding ELISA, Anti-CD28 Fab signal” value [6] was 0.84.

B11: Phage-1301 (peptide, not shown: large carriers)
peptide: YCEGHLAVHMSKCL
modifications: cysteine pairing not given here; also: fused to phage pIII protein, pIII and linker sequence not given here
notes: as for B2
In the case of B11, the “Anti-CD28 Fab signal (phage binding ELISA)” value [3] is reported as 0.62 and the “Anti-CD28 Fab signal in the presence of CD28 (phage binding ELISA)” value [4] is reported as 0.06.

B12: Phage-1265 (peptide)
peptide: YCEGHLPMYMQKCM
notes: as for B3
For B12, the “Phage binding ELISA, Anti-CD28 Fab signal in the presence of CD28” value [5] was 0.07 and the “Phage binding ELISA, Anti-CD28 Fab signal” value [6] was 0.82.

B13: Phage-1262 (peptide)
peptide: YCDGHSMTYMAKCI
notes: as for B3
With B13 the “Phage binding ELISA, Anti-CD28 Fab signal in the presence of CD28” value [5] was 0.06 and the “Phage binding ELISA, Anti-CD28 Fab signal” value [6] was 0.84.

B14: Phage-1298 (peptide)
peptide: YCEGHAQMYMLKCL
For B14, the “Phage binding ELISA, Anti-CD28 Fab signal” value [1] was 0.64 and the “Phage binding ELISA, Anti-CD28 Fab signal in the presence of CD28” value [2] was 0.06.

B15: Phage-1305 (peptide, not shown: large carriers)
peptide: YCQGHSELYMSKCL
modifications: cysteine pairing not given here; also: fused to phage pIII protein, pIII and linker sequence not given here
notes: as for B2
In the case of B15, the “Anti-CD28 Fab signal (phage binding ELISA)” value [3] is reported as 0.6 and the “Anti-CD28 Fab signal in the presence of CD28 (phage binding ELISA)” value [4] is reported as 0.08.

B16: Phage-1295 (peptide)
peptide: YCMGHSAEYMGKCL
With B16 the “Phage binding ELISA, Anti-CD28 Fab signal” value [1] was 0.64 and the “Phage binding ELISA, Anti-CD28 Fab signal in the presence of CD28” value [2] was 0.06.

B17: Phage-1297 (peptide)
peptide: YCDGHAAWYLQKCL
In the case of B17, the “Phage binding ELISA, Anti-CD28 Fab signal” value [1] is reported as 0.64 and the “Phage binding ELISA, Anti-CD28 Fab signal in the presence of CD28” value [2] is reported as 0.07.

B18: Phage-1292 (peptide)
peptide: YCDGHYGAYILKCL
B18 was tested, and the “Phage binding ELISA, Anti-CD28 Fab signal” value [1] was 0.67 and the “Phage binding ELISA, Anti-CD28 Fab signal in the presence of CD28” value [2] was 0.06.

B19: Phage-1291 (peptide)
peptide: YCEGHLPQYLAKCY
With B19 the “Phage binding ELISA, Anti-CD28 Fab signal” value [1] was 0.67 and the “Phage binding ELISA, Anti-CD28 Fab signal in the presence of CD28” value [2] was 0.08.
